Source: publication PMC4944284

B1: unnamed (parent)
chain: MPGFYEIVIKVPSDLDGHLPGISDSFVNWVAEKEWELPPDSDMDLNLIEQAPLTVAEKLQRDFLTEWRRVSKAPEALFFVQFEKGESYFHMHVLVETTGVKSMVLGRFLSQIREKLIQRIYRGIEPTLPNWFAVTKTRNGAGGGNKVVDESYIPNYLLPKTQPELQWAWTNMEQYLSACLNLTERKRLVAQHLTHVSQTQEQNKENQNPNSDAPVIRSKTSARYMELVGWLVDKGITSEKQWIQEDQASYISFNAASNSRSQIKAALDNAGKIMSLTKTAPDYLVGQQPVEDISSNRIYKILELNGYDPQYAASVFLGWATKKFGKRNTIWLFGPATTGKTNIAEAIAHTVPFYGCVNWTNENFPFNDCVDKMVIWWEEGKMTAKVVESAKAILGGSKVRVDQKCKSSAQIDPTPVIVTSNTNMCAVIDGNSTTFEHQQPLQDRMFKFELTRRLDHDFGKVTKQEVKDFFRWAKDHVVEVEHEFYVKKGGAKKRPAPSDADISEPKRVRESVAQPSTSDAEASINYADRLARGHSL

Variants of: B1
Assay: sedimentation velocity (analytical ultracentrifugation), self-association
Conditions: with partner chain of the complex shown; parent: 1; read off a plot

| Variant | ratio to parent |
| --- | --- |
| MPGFYEIVIKVPSDLDGHLPGISDSFVNWVAEKEWELPPDSDMDLNLIEQAPLTVAEKLQRDFLTEWRRVSKAPEALFFVQFEKGESYFHMHVLVETTGVKSMVLGRFLSQIREKLIQRIYRGIEPTLPNWFAVTKTRNGAGGGNKVVDESYIPNYLLPKTQPELQWAWTNMEQYLSACLNLTERKRLVAQHLTHVSQTQEQNKENQNPNSDAPVIRSKTSARFMELVGWLVDKGITSEKQWIQEDQASYISFNAASNSRSQIKAALDNAGKIMSLTKTAPDYLVGQQPVEDISSNRIYKILELNGYDPQYAASVFLGWATKKFGKRNTIWLFGPATTGKTNIAEAIAHTVPFYGCVNWTNENFPFNDCVDKMVIWWEEGKMTAKVVESAKAILGGSKVRVDQKCKSSAQIDPTPVIVTSNTNMCAVIDGNSTTFEHQQPLQDRMFKFELTRRLDHDFGKVTKQEVKDFFRWAKDHVVEVEHEFYVKKGGAKKRPAPSDADISEPKRVRESVAQPSTSDAEASINYADRLARGHSL [chain 1 Y224F] | 0.69 |
| MPGFYEIVIKVPSDLDGHLPGISDSFVNWVAEKEWELPPDSDMDLNLIEQAPLTVAEKLQRDFLTEWRRVSKAPEALFFVQFEKGESYFHMHVLVETTGVKSMVLGRFLSQIREKLIQRIYRGIEPTLPNWFAVTKTRNGAGGGNKVVDESYIPNYLLPKTQPELQWAWTNMEQYLSACLNLTERKRLVAQHLTHVSQTQEQNKENQNPNSDAPVIRSKTSARDMELVGWLVDKGITSEKQWIQEDQASYISFNAASNSRSQIKAALDNAGKIMSLTKTAPDYLVGQQPVEDISSNRIYKILELNGYDPQYAASVFLGWATKKFGKRNTIWLFGPATTGKTNIAEAIAHTVPFYGCVNWTNENFPFNDCVDKMVIWWEEGKMTAKVVESAKAILGGSKVRVDQKCKSSAQIDPTPVIVTSNTNMCAVIDGNSTTFEHQQPLQDRMFKFELTRRLDHDFGKVTKQEVKDFFRWAKDHVVEVEHEFYVKKGGAKKRPAPSDADISEPKRVRESVAQPSTSDAEASINYADRLARGHSL [chain 1 Y224D] | 0.1 |
